Source: WO2025026282A1 (dated 2025)

Experiments:
human CD64 = human CD64 (human, UniProt P12314 16-292, limits assumed); experiment: BLI (Octet), human CD64
human CD32 alpha = target: T1, human CD32 alpha (human, UniProt P12318 34-217, limits assumed); experiment: BLI (Octet), human CD32 alpha
T1 construct: also called FcgammaRII
T1 sequence (looked up): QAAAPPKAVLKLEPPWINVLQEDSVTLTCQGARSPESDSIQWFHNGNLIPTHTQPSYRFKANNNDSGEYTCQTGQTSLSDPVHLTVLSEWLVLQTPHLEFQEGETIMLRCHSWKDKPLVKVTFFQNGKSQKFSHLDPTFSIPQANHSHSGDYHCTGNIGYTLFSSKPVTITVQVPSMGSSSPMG

Sequence of human CD64 (P12314 16-292 limits assumed): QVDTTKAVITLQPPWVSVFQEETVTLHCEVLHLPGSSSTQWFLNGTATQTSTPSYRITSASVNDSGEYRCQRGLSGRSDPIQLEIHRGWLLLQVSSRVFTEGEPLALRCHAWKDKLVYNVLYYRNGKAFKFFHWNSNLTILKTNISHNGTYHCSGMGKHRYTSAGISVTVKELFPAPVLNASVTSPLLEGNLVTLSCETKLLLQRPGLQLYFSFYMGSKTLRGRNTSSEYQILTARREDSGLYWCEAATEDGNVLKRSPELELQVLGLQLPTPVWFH

binding result (human CD64): binds
Kd (human CD32 alpha): ~527 nM
B1: 12A39 (2:1:1 asymmetric tri-specific antibody, Type E structure, CEA x CD3 x PD-L1) (other)
chain 1: QAVVTQEPSLTVSPGGTVTLTCRSSTGAVTTSNYANWVQQKPGQAPRGLIGGTNKRAPWTPARFSGSLLGGKAALTLSGAQAEDEADYYCALWYSNLWVFGGGTKLTVLRTVAAQVQLVQSGAEVKKPGSSVKVSCKTSGDTFSSYAISWVRDAPGQCLEWMGGIIPIFGKAHYAQKFQGRVTITADESTSTAYMELSSLRSEDTAVYFCARKFHFVSGSPFGMDVWGQGTTVTVSSASEPKSSDKTHTCPPCPAPPVAGPSVFLFPPKPKDTLMISRTPEVTCVVVDVSQEDPEVKFNWYVDGVEVHNAKTKPREEQFNSTYRVVSVLTVLHQDWLNGKEYKCKVSNKGLPSSIEKTISKAKGQPREPQVYTLPPSRDELTKNQVSLWCLVKGFYPSDIAVEWESNGQPENNYKTTPPVLDSDGSFFLYSKLTVDKSRWQQGNVFSCSVMHEALHNHYTQKSLSLSP
chain 2: EVQLVESGGGLVQPGGSLRLSCAASGFTFTDYYMNWVRQAPGKALEWLGFIRNKVNGDTTEYAASVKGRFTISRDDSKNSLYLQMNSLKTEDTAVYYCARDKGIAYYFDYWGQGTLVTVSSASTKGPSVFPLAPSSKSTSGGTAALGCLVKDYFPEPVTVSWNSGALTSGVHTFPAVLQSSGLYSLSSVVTVPSSSLGTQTYICNVNHKPSNTKVDKKVEPKSCDGGGGSGGGGSEIVLTQSPATLSLSPGERATLSCRASQSVSSYLAWYQKKPGQAPRLLIYDASNRATGIPARFSGSGSGTDFTLTISSLEPEDFAVYYCQQRSNWPTFGCGTKVEIKRTVAAEVQLVESGGGLVQPGGSLRLSCAASGFTFSTYAMNWVRQAPGKGLEWVGRIRSKYNNYATYYADSVKGRFTISRDDSKNSLYLQMNSLRAEDTAVYYCVRHGNFGTSYVSWFAYWGQGTLVTVSS
heavy: EVQLVESGGGLVQPGGSLRLSCAASGFTFTDYYMNWVRQAPGKALEWLGFIRNKVNGDTTEYAASVKGRFTISRDDSKNSLYLQMNSLKTEDTAVYYCARDKGIAYYFDYWGQGTLVTVSSASTKGPSVFPLAPSSKSTSGGTAALGCLVKDYFPEPVTVSWNSGALTSGVHTFPAVLQSSGLYSLSSVVTVPSSSLGTQTYICNVNHKPSNTKVDKKVEPKSCDKTHTCPPCPAPPVAGPSVFLFPPKPKDTLMISRTPEVTCVVVDVSQEDPEVKFNWYVDGVEVHNAKTKPREEQFNSTYRVVSVLTVLHQDWLNGKEYKCKVSNKGLPSSIEKTISKAKGQPREPQVYTLPPSRDELTKNQVSLSCAVKGFYPSDIAVEWESNGQPENNYKTTPPVLDSDGSFFLVSKLTVDKSRWQQGNVFSCSVMHEALHNRFTQKSLSLSP
light: EIVLTQSPATLSASPGERATLSCRASQSVSYIHWYQQKPGQSPRPWIHGTSNLATGVPARFSGSGSGTDFTLTISSLEPEDAAVYYCQQWSSNLSTFGGGTKVEIKRTVAAPSVFIFPPSDEQLKSGTASVVCLLNNFYPREAKVQWKVDNALQSGNSQESVTEQDSKDSTYSLSSTLTLSKADYEKHKVYACEVTHQGLSSPVTKSFNRGEC
notes: Tri-specific antibody; also called polypeptide complex 12A39
